Reference: the RNAGym collection of RNA variant scans (doi:10.1073/pnas.2313332121)
Fewer inactive variants are shown than the library holds.

B1: TPR 5TU (parent)
chain: GGAUCUUCUCGAUCUAACAAAAAAGACAAAUCUGCCACAAAGCUUGAGAGCAUCUUCGGAUGCAGAGGCGGCAGCCUUCGGUGGCGCGAUAGCGCCAACGUUCUCAACUAUGACACGCAAAACGCGUGCUCCGUUGAAUGGAGUUUAUCAUG

Variants of: B1
Assay: polymerase ribozyme fitness, log enrichment relative to wild type (log ratio); higher = more active; in vitro selection for triplet polymerase activity
Summary of the method: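 Mutant libraries of both subunits of a heterodimeric triplet polymerase ribozyme were PCR-built, transcribed, and selected once in triplicate, with frozen incubation at −7 °C and capture of gel-excised extended constructs on streptavidin beads before RT-PCR. Illumina sequencing of input and output libraries was filtered to genotypes with ≥10 input reads and ≥1 read per output. Fitness is the logarithm of genotype enrichment over wild-type enrichment, using inverse-variance-weighted replicate averages. The logarithm is base 2.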

Row | Variant | polymerase ribozyme fitness (log ratio)
1 | GGAUCUUCUCGAUCUAACAAAAAAGACAAAUCUGCCACAAAGCUUGAGAGCAUCUUCGGAUGCAGAGGCGGCAGCCUUCGGUGGCGCGAUAUCGCCAACGUUCUCAACUAUGACAGGCAAAACGCGUGCUCGGUUGAAUGGAGUUUAUCAUG [G92U C116G C132G] | -3.8
2 | GGAUCUUCUCGAUCUAACCAAAAAGACAAAUCUGCCACAAAGCUUGAGAGCAUCUUCGGAUGCAGAGGCGGCAGCCUUCGGUGGCGCGAUAGCGCUAACGUUCUCAACUAUGACACGCAAAACCCGUGCUCCGUUGAAUGGAGUUUAUCAUG [A19C C96U G124C] | -0.582
3 | GGAUCUUCUCGAUCUAACAAAUAAGACAAAUCUGCCACAAAGCUUGAGAGCAUCAACGGAUGCAGAGGCGGCAGCCUUCGGUGGCGCGAUAGCGCCUACGUUCUCAACUAUGACACGCAAAACGCGUGCUCCGUUGAAUGGAGUUUAUCAUG [A22U U55A U56A A97U] | -0.631
4 | GGAUCUUCUCGAUCUACCAAAAAAGACAAAUCUGCCACAAAGCUUGAGAGCAUCUUCGGAUGCAGAGGCGGCAGCCUUCGGUGGCGCGAUAGCGCCAACGUUCUUAACUAUGACACGCAAAACGCGUGCUCCGUUGAAUGGAGUUUAUCAUG [A17C C105U] | 1.03
5 | GGAUCUUCUCGAUCUAACAAAAAAGACAAAUCUGCCACAAAGCUUGAGAGCAUCUUCGGAUGCAGAGGCGGCAGCCUUCGGUGGCGCGAUAGCGCCAACGUUCUCAACUAUGACAAGCAAAACGCGUGCUCCGUUGAAUGGAGUUUAACAUG [C116A U148A] | -3.52
6 | GGAUCUUCUCGAUCUAACAAAAAAGACAAAUCUGCCACAAAGCUUGAGAGCAUCUUUGGAUGCAGAGGCGGCAGCCUUCGGUGGCGCGAUAGCGCCAACGUUCUCAACUAUGACACGCAAAACGCGUGCUCCGUUGAAUGAAGUUUAUCAUG [C57U G141A] | 0.719
7 | GGUUUUUCUCGAUCUAACAAAAAAGACAAAUCUGCCACAAAGCUUGAGAGCAUCUUCGGAUGCAGAGGCGGCAGCCUUCGGUGGCGUGAUAGCGCGAACGUUCUCAACUAUGACACGCAAAACGCGUGCUACGUUGAAUGGAGUUUAUCAUG [A3U C5U C87U C96G C131A] | ≤ -4.2
8 | GGAUCUUCUCGAUCUAACAAAAUAGACAAAUCUGCCACAAAGCUUGAGAGCAUCUUCGGAUGCAGAGGCGGCAGCCUUCAGUGGCGCGAUAGCGCCAACGUUCUCAACUAUGACACGCAAAACGCGUGCUCCGUUGAAUGGAGUUUAUCGUG [A23U G80A A150G] | ≤ -4.2
9 | GGAUCUUCUCGAUCUAACAAAAAAGACAAAUCUGCAACAAAGCUUGAGAGCAUCUUCGGGUGCAGAGGCGGCAGCCUUCGGUGGCGCGAUAGCGCCAACGUUCUCAACUAUGACACGCAAAACGCGUGCUCCGUUGAAUGGAAUUUAUCAUG [C36A A60G G143A] | ≤ -4.2
10 | GGAUCUUCUCGAUCUAACAAAAAAGUCAAAUCUGCCACAAAGCUUGAGAGCAUCUUCGGAUGGAGAGGCGGCAGCCUUCCGUGGGGCGAUAGCGCCAACGUUCUCAACGAUGACACGCAAAUCGCGUGCUCCGUUGAAUGGAGUUUAUCAUG [A26U C63G G80C C85G U109G A122U] | ≤ -4.2
11 | GGAUCUUCUCGAUCUAACAAAAAAGACAAAUCUGCCACAAAGCUUGAGAGCAACUUCGUAUGCAGAGGCGGCAGCCUUCGGUGGCGCGAUAGCGCCAACGUUCUCAACUAUGACACGCAAAACGCGUGCUCCGUUGAAUGGAGUUUAUCAUG [U53A G59U] | 0.71
12 | GGAUCUUCUCGAUCUAACAAAAAAGAGAAAUCUGCCACAAAGCUUGAGAGCAUCUUCGGAUGCAGAGGCGGCAGCCUUCGGUGGCGCGAUAGCGCCAACGUUCUCAACUAUGACACGCAAAACGCGUGCUCCGUUGAAUGGAGUUUAUCAUA [C27G G152A] | ≤ -4.2
13 | GGGUCUUCUCGAUCUAACAACAAAGACAAAUCUGCCCCAAAGCUUGAGAGCAUCUUCGGAUGUAGAGGCGGCACCCUUCGGUGGCGGGAUAGCGCCAACGUUCUCAACUAUGACACGCAAAACGCGUCCUCCGUUGAAUGAAGUUUAUCAUG [A3G A21C A37C C63U G74C C87G G128C G141A] | ≤ -4.2
14 | GGAUCUUCUCGAUCGAACAAAAAAGACAAAUCUGCCAUAAAGCUUGAGAGCAUCUUCGGAUGCAGAGGCGGCAGCCUUCGGUGGCGCGAUAGCGCCAACGUUCUCAACUAUGACACGCAAAACGCGUGCUCCGUUGAAUGGAGUUUAUCAUG [U15G C38U] | -0.133
15 | GGAUCUUCUCGAUCUAACAAAAAAGACAAAUCUGCCACAAAGCUUGAGAGCAUCAUCGGAUGCAGAGGCGGCGGCCUUCGGUGGCGCGAUAGCGCCAACGUUCUCAACUAUGACACGCAAAACGCGUGCUCCGUAGAAUGGAGUUCAUCAUG [U55A A73G U135A U146C] | -0.581
16 | GGAUCUUCUCGAUCUAACAAAAAAGACAAAUCUGCCACAAAGCUUGAGAGCAUCUUCGGUUGCAGAGGCGGCAGCCUUCGGUGGCGCGAUAGCCCCAACGUUCUCAACUAUGACACGCAAAACGCGUGCUCCGUUGAAUGGAGUUUAUCAUG [A60U G94C] | -1.12
17 | GGAUCUUCUCGAUCUAACAAAAAAGACAAAUCUGCCACAAAGCGUGAAAGCAUCUUCGGAUGCAGAGGCGGCAGCCUUCGGUCGCGCGAUAGCGCCAACGUUCUCAACUAUGACACGCAAAACGCGUGCUCCGUUGAAUGGAGUUUAUCAUG [U44G G48A G83C] | ≤ -4.2
18 | GGAUCUUCUCGAUCUAACAAAAAAGACAAAUCUGCCACAAAGCUUGAGACCAUCUUCGGAUGCAGAGGCGGCAGCCUUCGGUGGCGCGGUAGCGCCAACGUUCUCACCUAUGACACGCAAAAGGCGUGCUCCGUUGAAUGGAGUUUAUCAUG [G50C A89G A107C C123G] | ≤ -4.2
19 | GGAUCUUCUCGAUCUAACAAAAAAGACAAAUCUGCCACAAAGCUUGAGAGCAUGUUCGGAUGCAGAGGCGGCAGCCUUCGGUGGCGCGAUAGCGCUAACGUUCUCAACUAGGACACGCAAAACGCGUGCUCCUUUGGAUGGAGUUUAUCAUG [C54G C96U U111G G133U A137G] | ≤ -4.2
